Data set [1] in a line: Solubility of 4-androstene-3,17-dione (saturated solution). It is filed as physicochemical. The procedure:
• 5 mg of 4-androstene-3,17-dione in • 5 mL of buffer solution (phosphate buffer 50 mM; pH 6.5). This was stirred at 40° C. for 15 minutes and the suspended matter was filtered thereby obtaining a saturated solution of 4-androstene-3,17-dione (conc. 50 μg/mL). Solution I (NAD Solution) • 10 mg of NAD in • 1 mL of buffer solution. A clear solution was obtained. Solution L ([…]) • 13 mg of GDH-103 (glucose dehydrogenase) in • 1 mL of buffer solution. A clear solution was obtained.
Advantageously, the enzyme of the present invention is capable of carrying out the catalysis also in water-organic solvent mixtures, such as methanol, ethanol, isopropanol in percentages as high as 50%. This mixtures allow increasing the substrate solubility, which is as low as about 50 μg/mL in water.

Data set [2] in a line: Activity test of the recombinant murine type V 17β-hydroxysteroid dehydrogenase enzyme (NADPH consumption at 340 nm). It is filed as biochemical. Conditions: for U/mg: each enzyme preparation; for U/mg / U/ml: preparation parameters (induction temp., time) differ per date of preparation; for U/ml: eluate of each enzyme preparation. The procedure: To estimate the specific enzymatic activity of the purified protein, a kinetic study was carried out by means of a spectrophotometer. The conversion of 4-androstene-3,17-dione into testosterone by means of the recombinant murine type V 17β-hydroxysteroid dehydrogenase enzyme involved the equimolar consumption of the NADPH cofactor, which acted as the reducing agent.
As the transformation of the 4-androstene-3,17-dione into testosterone is equimolar to the oxidation of NADPH, by quantifying the consumption of the latter over time as a function of the enzyme milligrams used, the activity units can be estimated, which are intended as substrate micromoles converted per minute per protein milligram (U/mg).
A fresh saturated NADPH solution in phosphate buffer 100 mM at about pH 7 (SOLUTION Q) and a fresh saturated solution of 4-androstene-3,17-dione in phosphate buffer 100 mM at pH 7 (SOLUTION P) were prepared. In a quartz 100 μl cuvette, 1 cm optical path, 96 μl SOLUTION P, 4 μl phosphate buffer 100 mM at pH 7 were added. The blank was measured at 340 nm. The absorbance values at 340 nm were detected every second. In a quartz 100 μl cuvette 96 μl SOLUTION P, 2 μl SOLUTION Q and finally, 2 μl protein elution quantified by Bradford assay were inserted. The solution was blended thoroughly, then the wavelength reading was started at 340 nm and the values thereof were recorded. In a plot, the absorbance values were inserted, which were obtained as a function of time and the curve was interpolated. The highest derivate value within the early seconds of measurement was thus defined.
With the values obtained, the plot illustrated in FIG. 5 was drawn, which allows to quantify the NADPH consumption rate at time zero (except the self-oxidation given by the control, consisting of the mixture without enzyme, which must be subtracted) and from the latter the enzyme activity units per protein milligram (U/mg). To calculate the units, the following Formula was used: Unit/mg=|derivate (s^−1)|*60 (sec/min)*1 (cm)/6220 (M^−1Cm^−1)*1000000 (M/M)*[…]/[(mg/mL sol enzyme*0.002 (mL))]=(μmol/min)/mg
A study to optimize the process for the preparation of the purified recombinant murine enzyme Type V 17β-hydroxysteroid dehydrogenase was carried out. […] It can be seen that the highest activity of the enzyme is reached performing the incubation (protein expression) at a temperature lower than 30° C., particularly preferred is the range between 20° C. and 30° C. The incubation temperature is a key parameter for the preparation of the enzyme.

A short description of data set [3]: Stability study of the enzyme (activity as a function of time at room temperature). It is filed as physicochemical. The conditions noted are these: in the elution solution (SOLUTION G) at room temperature. The procedure:
A study to verify the stability in water of the purified recombinant murine enzyme Type V 17β-hydroxysteroid dehydrogenase of the invention was carried out. […] It can be seen that the enzyme is sufficiently stable to allow industrial biocatalysis as it is still active even after 15 days (Half-life).

≈ marks a conversion by molar mass, not a printed value. Where “and” joins values, the source holds several entries; their conditions need not be identical. Equal values may be shown once.

Broadly, the solubility is the dissolved amount per volume that the medium holds. In data set [1] (in water), `C[C@]12CCC(=O)C=C1CC[C@@H]1[C@@H]2CC[C@]2(C)C(=O)CC[C@@H]12` [4-androstene-3,17-dione] gave a solubility of about 50 µg/mL (≈ 175 µM). Also, the “concentration of saturated solution” value in data set [1] (phosphate buffer 50 mM pH 6.5, stirred at 40° C. for 15 minutes, filtered) was determined as 50 µg/mL.

B1: recombinant murine type V 17β-hydroxysteroid dehydrogenase enzyme: Purified recombinant murine type V 17β-hydroxysteroid dehydrogenase with N-terminal His-tag tail, SEQ ID n. 2, expressed in E. coli (protein)
chain: MGSSHHHHHHSSGLVPRGSHMDSKQQTVRLSDGHFIPILGFGTYAPQEVPKSKATEATKIAIDAGFRHIDSASMYQNEKEVGLAIRSKIADGTVKREDIFYTSKVWCTFHRPELVRVCLEQSLKQLQLDYVDLYLIHFPMAMKPGENYLPKDENGKLIYDAVDICDTWEAMEKCKDAGLAKSIGVSNFNRRQLEKILKKPGLKYKPVCNQVECHPYLNQGKLLDFCRSKDIVLVAYSALGSHREKQWVDQSSPVLLDNPVLGSMAKKYNRTPALIALRYQLQRGVVVLAKSFSEKRIKENMQVFEFQLTSEDMKVLDDLNKNIRYISGSSFKDHPDFPFWDEY
modifications: N-terminal His-tag; modified 17-beta-deidrogenase
notes: 2, expressed in E. coli
Consider B1, for which the “specific enzymatic activity (substrate micromoles converted per minute per protein milligram)” value in data set [2] (two different preparations, NADPH cofactor, phosphate buffer 100 mM pH 7) is 0.006 U/mg and 0.007 U/mg. For the same molecule, the half-life result in data set [3] is given as “more than 15 days”.

B2: 09/10/09: Preparation of the purified recombinant enzyme dated 09/10/09; induction 26 °C, 19 h (protein, UniProt P70694 1-323, looked up)
Estradiol 17 …: MDSKQQTVRLSDGHFIPILGFGTYAPQEVPKSKATEATKIAIDAGFRHIDSASMYQNEKEVGLAIRSKIADGTVKREDIFYTSKVWCTFHRPELVRVCLEQSLKQLQLDYVDLYLIHFPMAMKPGENYLPKDENGKLIYDAVDICDTWEAMEKCKDAGLAKSIGVSNFNRRQLEKILKKPGLKYKPVCNQVECHPYLNQGKLLDFCRSKDIVLVAYSALGSHREKQWVDQSSPVLLDNPVLGSMAKKYNRTPALIALRYQLQRGVVVLAKSFSEKRIKENMQVFEFQLTSEDMKVLDDLNKNIRYISGSSFKDHPDFPFWDEY
modifications: N-terminal His-tag
notes: Preparation of the purified recombinant enzyme dated 09/10/09; induction 26 °C, 19 h
As for B2, in data set [2], the U/mg was 0.0133 U/mg and the U/ml amounted to 0.65 U/ml.

B3: 25/03/09: Preparation of the purified recombinant enzyme dated 25/03/09; induction 37 °C, 15 h (protein, UniProt P70694 1-323, looked up)
Estradiol 17 …: B2 Estradiol 17 …
modifications: N-terminal His-tag
notes: Preparation of the purified recombinant enzyme dated 25/03/09; induction 37 °C, 15 h
In the case of B3, in data set [2], the U/mg is listed as 0.0149 U/mg and the U/ml was 0.4955 U/ml.

B4: 22/04/09: Preparation of the purified recombinant enzyme dated 22/04/09; induction 37 °C, 21 h (protein, UniProt P70694 1-323, looked up)
Estradiol 17 …: B2 Estradiol 17 …
modifications: N-terminal His-tag
notes: Preparation of the purified recombinant enzyme dated 22/04/09; induction 37 °C, 21 h
In the case of B4, in data set [2], the U/mg was determined as 0.0057 U/mg and the U/ml turned out to be 0.1470 U/ml.

B5: 13/06/09: Preparation of the purified recombinant enzyme dated 13/06/09; induction 39 °C, 20 h (protein, UniProt P70694 1-323, looked up)
Estradiol 17 …: B2 Estradiol 17 …
modifications: N-terminal His-tag
notes: Preparation of the purified recombinant enzyme dated 13/06/09; induction 39 °C, 20 h
For the molecule B5, in data set [2], the U/mg is listed as 0.00393 U/mg and the U/ml is listed as 0.0566 U/ml.

B6: 26/09/08: Preparation of the purified recombinant enzyme dated 26/09/08; induction 37 °C, 18 h (protein, UniProt P70694 1-323, looked up)
Estradiol 17 …: B2 Estradiol 17 …
modifications: N-terminal His-tag
notes: Preparation of the purified recombinant enzyme dated 26/09/08; induction 37 °C, 18 h
Turning to B6, in data set [2], the U/mg amounted to 0.00725 U/mg and the U/ml is 0.2247 U/ml.

B7: 02/07/09: Preparation of the purified recombinant enzyme dated 02/07/09; induction 28 °C, 24 h (protein, UniProt P70694 1-323, looked up)
Estradiol 17 …: B2 Estradiol 17 …
modifications: N-terminal His-tag
notes: Preparation of the purified recombinant enzyme dated 02/07/09; induction 28 °C, 24 h
On to B7, for which, in data set [2], the U/mg came out at 0.027 U/mg and the U/ml is given as 0.29 U/ml.
